Laboratory results: patent US20250011433A1 (GLIKNIK, published 2025)
Positions count from the first letter of the chain named. Names may count otherwise.

T1: FcγRIIb (UniProt P31994 46-217, limits assumed)
T1 sequence (looked up): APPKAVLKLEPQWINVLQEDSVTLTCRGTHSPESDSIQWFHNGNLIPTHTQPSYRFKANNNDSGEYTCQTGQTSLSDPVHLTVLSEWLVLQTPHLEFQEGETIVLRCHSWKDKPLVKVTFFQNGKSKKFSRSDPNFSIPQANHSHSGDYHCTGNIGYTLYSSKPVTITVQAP

B1: G997 (Fc fusion)
chain: EPKSCDKTHTCPPCPAPELLGGPSVFLFPPKPKDTLMISRTPEVTCVVVDVEFEDPEVKFNWYVDGVEVHNAKTKPREEQYNSTYRVVSVLTVLHQDWLNGKEYKCKVTNKALPAPIEKTISKAKGQPREPQVYTLPPSRDELTKNQVSLTCLVKGFYPSDIAVEWESNGQPENNYKTTPPVLDSDGSFFLYSKLTVDKSRWQQGNVFSCSVMHEALHNHYTQKSLSLSPGKERKCCVECPPCP
notes: G045c background, S267E/H268F/S324T; leader 1-20 cleaved
B2: G1032 (Fc fusion)
chain: B1 chain with L19A, L20A
notes: G045c background, L234A/L235A/S267E/H268F/S324T; leader 1-20 cleaved
B3: G1042 (Fc fusion)
chain: B1 chain with E18P, G21R, L113F
notes: G045c background, E233P/G236R/S267E/H268F/S324T/L328F; leader 1-20 cleaved
B4: G1046 (Fc fusion)
chain: B1 chain with P23D, D50W, D141E, L143M
notes: G045c background, P238D/D265W/S267E/H268F/S324T; leader 1-20 cleaved
B5: G1006 (Fc fusion)
chain: B1 chain with D50A
notes: G045c background, D265A/S267E/H268F/S324T; leader 1-20 cleaved
B6: G1043 (Fc fusion)
chain: B1 chain with P23D, D50G, D141E, L143M
notes: G045c background, P238D/D265G/S267E/H268F/S324T; leader 1-20 cleaved
B7: G1025 (Fc fusion)
chain: B1 chain with P23D
notes: G045c background, P238D/S267E/H268F/S324T; leader 1-20 cleaved
B8: G1027 (Fc fusion)
chain: B1 chain with P23D, N82A
notes: G045c background, P238D/S267E/H268F/N297A/S324T; leader 1-20 cleaved
B9: G1003 (Fc fusion)
chain: ERKCCVECPPCPEPKSCDKTHTCPPCPAPELLGGPSVFLFPPKPKDTLMISRTPEVTCVVVDVEFEDPEVKFNWYVDGVEVHNAKTKPREEQYNSTYRVVSVLTVLHQDWLNGKEYKCKVTNKALPAPIEKTISKAKGQPREPQVYTLPPSREEMTKNQVSLTCLVKGFYPSDIAVEWESNGQPENNYKTTPPVLDSDGSFFLYSKLTVDKSRWQQGNVFSCSVMHEALHNHYTQKSLSLSPGK
notes: G019 background, S267E/H268F/S324T; leader 1-20 cleaved
B10: G1049 (Fc fusion)
chain: B9 chain with L125F, E153D, M155L
notes: G019 background, S267E/H268F/S324T/L328F; leader 1-20 cleaved
B11: G1109 (Fc fusion)
chain: B1 chain with E18P
notes: G045c background, E233P/S267E/H268F/S324T; leader 1-20 cleaved
B12: G1132 (Fc fusion)
chain: B1 chain with E52R, N82A
notes: G045c background, S267R/H268F/S324T/N297A; leader 1-20 cleaved
B13: G1123 (Fc fusion)
chain: B1 chain with E18P, G21Q, E52R
notes: G045c background, E233P/G236Q/S267R/H268F/S324T; leader 1-20 cleaved
B14: G1084 (Fc fusion)
chain: B1 chain with E18P, E52K
notes: G045c background, E233P/S267K/H268F/S324T; leader 1-20 cleaved
B15: G1071d2 (Fc fusion)
chain: B1 chain with E52S, T84A
notes: G045c background, H268F/S324T/T299A; leader 1-20 cleaved
B16: G1096 (Fc fusion)
chain: B1 chain with E52R, T84A
notes: G045c background, S267R/H268F/S324T/T299A; leader 1-20 cleaved
B17: G1125 (Fc fusion)
chain: B1 chain with E18P, E52H
notes: G045c background, E233P/S267H/H268F/S324T; leader 1-20 cleaved
B18: G1112 (Fc fusion)
chain: B1 chain with E18P, G21R, E52R
notes: G045c background, E233P/G236R/S267R/H268F/S324T; leader 1-20 cleaved
B19: G1119 (Fc fusion)
chain: B1 chain with E18P, G21R, E52K
notes: G045c background, E233P/G236R/S267K/H268F/S324T; leader 1-20 cleaved
B20: G1129 (Fc fusion)
chain: B1 chain with E18P, G21N
notes: G045c background, E233P/G236N/S267E/H268F/S324T; leader 1-20 cleaved
B21: G1116 (Fc fusion)
chain: B1 chain with E18P, G21H, E52K
notes: G045c background, E233P/G236H/S267K/H268F/S324T; leader 1-20 cleaved
B22: G1093 (Fc fusion)
chain: B1 chain with E52K, T84A
notes: G045c background, S267K/H268F/S324T/T299A; leader 1-20 cleaved
B23: G1122 (Fc fusion)
chain: B1 chain with E18P, G21H, E52Q
notes: G045c background, E233P/G236H/S267Q/H268F/S324T; leader 1-20 cleaved
B24: G1100 (Fc fusion)
chain: B1 chain with E18P, E52R
notes: G045c background, E233P/S267R/H268F/S324T; leader 1-20 cleaved
B25: G1070 (Fc fusion)
chain: B1 chain with E52K, N82A
notes: G045c background, S267K/H268F/S324T/N297A; leader 1-20 cleaved
B26: G1048 (Fc fusion)
chain: B9 chain with G33R, L125F
notes: G019 background, G236R/L328F/S267E/H268F/S324T

The binders below were run against T2, FcγRI (UniProt P12314 16-288) (assay: BLI (Octet)).
T2 construct: also called CD64
Experimental: (§1) Binding of complement-preferential stradomers or parent stradomer G045c to FcγRI, FcγRIIb, FcγRIIIa, FcγRIIa, or FcRn was assessed. RU values of dissociation were measured by biolayer interferometry using a ForteBio Octet instrument. His-tagged receptor proteins were bound to the sensor tip in 1× kinetic analysis buffer from ForteBio after which the on rate of the receptor/protein was measured by transferring the sensor tip to a 1× kinetics buffer containing the purified stradomer of choice. Off rate was measured by transferring the sensor tip to a 1× kinetics buffer, and RU value was calculated from the measured maximum binding using the ForteBio software. Biolayer interferometry detects the binding between a ligand immobilized on the biosensor tip surface and an analyte in solution. When binding occurs it produces an increase in optical thickness at the biosensor tip, which results in a wavelength shift (detected as a response unit of “RU”). The maximum binding level (RU max) is the maximum possible amount of sample binding at equilibrium that saturates the amount of ligand on the sensor surface. The RU 300 is the residual sample binding after 300 seconds of dissociation and is useful to characterize the rate of dissociation of the test article from the test ligand.

T2 sequence (P12314 16-288 limits assumed): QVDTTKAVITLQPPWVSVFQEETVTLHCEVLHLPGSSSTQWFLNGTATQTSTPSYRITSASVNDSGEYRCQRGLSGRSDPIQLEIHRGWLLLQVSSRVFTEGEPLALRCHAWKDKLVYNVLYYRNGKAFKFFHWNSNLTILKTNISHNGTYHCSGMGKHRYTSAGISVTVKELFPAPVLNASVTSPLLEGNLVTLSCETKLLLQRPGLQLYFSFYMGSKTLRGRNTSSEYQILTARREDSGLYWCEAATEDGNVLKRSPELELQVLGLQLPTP

binding result	Binder
binds	B1
binds	B2
binds	B3
binds	B4
binds	B5
binds	B6
binds	B7
binds	B8
binds	B9
binds	B10

These binders were tested against T1, FcγRIIb (assay: BLI (Octet)).
Experimental: as §1

binding result	Binder
binds	B1
binds	B2
binds	B3
binds	B5
binds	B6
binds	B7
binds	B8
binds	B9
binds	B10

Biological target: T2, FcγRI
Assay: BLI (Octet)
Remark: another data set of the same source
Experimental: as §1
(§2) For each stradomer in Tables 5-9, the level of canonical FcγR binding, complement C1q binding, and CDC inhibition were determined according to the methods described in Example 1.

binding result	Binder
binds	B11
binds	B12
binds	B13
binds	B14
binds	B15
binds	B16
binds	B17
binds	B18
binds	B19
binds	B20
binds	B21
binds	B22
binds	B23
binds	B24
binds	B25

Biological target: T1, FcγRIIb
Assay: BLI (Octet)
Remark: another data set of the same source
Experimental: as §1, §2

binding result	Binder
binds	B11
binds	B15
binds	B17
binds	B20
binds	B23

What follows are binders tested against T3, C1q (UniProt P02745 23-245; P02746 28-253; P02747 29-245) (assay: ELISA on coated C1q).
T3 construct: bought C1q coated on ELISA plates at 1 µg/ml; also called complement C1q; complement factor C1q
T3 sequence (P02745 23-245 limits assumed, chain 1 of 3): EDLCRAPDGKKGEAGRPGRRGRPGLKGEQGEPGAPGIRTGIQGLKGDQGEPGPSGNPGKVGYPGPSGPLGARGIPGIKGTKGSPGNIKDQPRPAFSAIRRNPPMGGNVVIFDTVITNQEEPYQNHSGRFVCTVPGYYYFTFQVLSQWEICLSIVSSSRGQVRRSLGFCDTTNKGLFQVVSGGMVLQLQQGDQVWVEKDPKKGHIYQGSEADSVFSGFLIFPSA
T3 sequence (P02746 28-253 limits assumed, chain 2 of 3): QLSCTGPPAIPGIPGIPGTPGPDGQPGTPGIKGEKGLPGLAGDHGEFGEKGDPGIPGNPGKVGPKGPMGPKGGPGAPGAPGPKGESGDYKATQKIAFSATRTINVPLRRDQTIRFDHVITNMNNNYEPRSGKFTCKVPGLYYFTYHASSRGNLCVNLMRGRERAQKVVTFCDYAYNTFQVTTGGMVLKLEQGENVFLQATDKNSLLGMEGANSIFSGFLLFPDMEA
T3 sequence (P02747 29-245 limits assumed, chain 3 of 3): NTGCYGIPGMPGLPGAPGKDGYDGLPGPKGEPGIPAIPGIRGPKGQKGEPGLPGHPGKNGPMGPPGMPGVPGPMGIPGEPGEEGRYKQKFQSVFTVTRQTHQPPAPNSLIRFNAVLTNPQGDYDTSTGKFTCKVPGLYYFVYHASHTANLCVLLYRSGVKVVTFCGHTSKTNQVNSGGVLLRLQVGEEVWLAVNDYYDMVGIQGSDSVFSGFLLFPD

binding result	Binder
no binding	B26

Biological target: T3, C1q
Assay: ELISA on coated C1q
Remark: another data set of the same source
Experimental: (§3) For C1q binding, 96 well plates were coated with C1q (Sigma Cat #: C1740 1 μg/ml) overnight in PBS. After coating, plates were washed 3 times with standard wash buffer (iX PBS+0.05% Tween 20) and blocked with blocking buffer (1% BSA+1× PBS+0.05% Tween 20) for 2 hours at RT. Following blocking, plates were incubated with compound diluted in blocking buffer 100 μL/well and washed 3 times with standard washing buffer. C1q-bound compound was detected by incubation with 1:5000 biotinylated mouse anti-human IgG1(Cat #555869, BD Biosciences) and Streptavidin-HRP (Cat #: 7100-05 Southern Biotech) (100 μl/well) for 1 hour at room temperature followed by washing 3 times with washing buffer, after which color was developed using the standard TMB method according to manufacturer's protocol for 15 minutes. Absorbance was read at 450 nm.

binding result	Binder
binds	B1
binds	B2
binds	B3
binds	B4
binds	B5
binds	B6
binds	B7
binds	B8
binds	B9
binds	B10

Biological target: T3, C1q
Assay: ELISA on coated C1q
Remark: another data set of the same source
Experimental: as §3, §2

binding result	Binder
binds	B11
binds	B12
binds	B13
binds	B14
binds	B15
binds	B16
binds	B18
binds	B19
binds	B21
binds	B22
binds	B24
binds	B25

The binders below were run against T3, C1q (assay: cell-based or functional assay).

CDC Inhibition (EC50, µg/mL)	Binder
5 µg/mL	B17
5 µg/mL	B20
5 µg/mL	B23

The binders below were run against FcγRIIIa (UniProt P08637 17-208) (assay: BLI (Octet); legend: - indicates no binding).
Experimental: as §1

FcγRIIIa, sequence (P08637 17-208 limits assumed): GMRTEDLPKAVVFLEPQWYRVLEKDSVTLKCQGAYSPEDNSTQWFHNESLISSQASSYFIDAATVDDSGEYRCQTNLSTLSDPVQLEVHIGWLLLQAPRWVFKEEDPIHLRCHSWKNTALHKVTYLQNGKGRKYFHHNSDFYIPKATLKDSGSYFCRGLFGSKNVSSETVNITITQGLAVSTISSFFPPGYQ

binding result	Binder
no binding	B3
no binding	B4
no binding	B5
no binding	B6
no binding	B7
no binding	B8
